{
  "source": "patent US20150210738",
  "key": {"[1]": {"target": "pVI (precursor to protein VI) (Human adenovirus 2) (UniProt P03274)", "sequence (P03274 whole entry)": "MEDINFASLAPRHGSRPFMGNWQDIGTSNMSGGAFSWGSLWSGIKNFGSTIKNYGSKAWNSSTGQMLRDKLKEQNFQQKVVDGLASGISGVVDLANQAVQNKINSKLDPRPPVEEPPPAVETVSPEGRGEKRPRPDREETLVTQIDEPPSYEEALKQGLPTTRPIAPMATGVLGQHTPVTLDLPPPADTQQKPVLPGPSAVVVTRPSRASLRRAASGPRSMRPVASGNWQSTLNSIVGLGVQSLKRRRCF", "assay": "FP", "details": "20 mM Tris pH 8.0, 0.025% DDM, 0.1 mM DTT, 1 mM MgCl2, 21 C; 4:1 stoichiometry"}, "[2]": {"system": "Protein VI (Human adenovirus 2)", "assay": "FP", "details": "20 mM Tris pH 8.0, 0.025% DDM, 1 mM MgCl2, 21 C"}},
  "data": [
    {"substance": "33-mer dsDNA", "values": [
      {"measurement": "Kd", "setting": "[1]", "value": 35, "unit": "nM"},
      {"measurement": "Kd", "setting": "[2]", "value": 241, "unit": "nM"}
    ]}
  ]
}
